# Measured values: the supplement of paper PMC10724198
# ± gives the standard deviation of the averaged measurements.
# System: Saccharomyces cerevisiae
# Assay: protein stability index of tFT-peptide fusion (C-terminal peptide) (PSI (0-1 scale)); higher = more stable (slower turnover)
# Details: genetic background: wild type; temperature: 30 C
# Method: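 Multiplexed protein stability (MPS) profiling in S. cerevisiae. Random 12-aa peptides (tFT-X12 library) are fused to the C-terminus of a sfGFP-mCherry tandem fluorescent timer, after mCherry and a GGGS linker. Cells are FACS-sorted into 8 mCherry/sfGFP bins and deep-sequenced. The protein stability index (PSI) is the read-weighted bin average, scaled from 0 (unstable) to 1 (stable). Only peptides with >10 reads are reported; cells were grown at 30 °C in SC-His with glucose.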
# 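Further: PSI is a weighted mean of sequencing reads over stability bins, variants kept only with over 10 reads, mCherry proximal and sfGFP distal, peptide attached via GGGS linker.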
row,Sequence,protein stability index
1,FALSSSLIRAFL,0.726 ± 0.00088
2,FALYVHHSLSFG,0.685 ± 0.02
3,FCGACFRGDVLV,0.67 ± 0.017
4,FCGGSWTDGFGW,0.737 ± 0.028
5,FCGLCCDPNRVP,0.708 ± 0.036
6,FCHLGSPATDFR,0.646 ± 0.013
7,FCIRLFLLPLCP,0.5869 ± 0.0055
8,FCLDLLVGLVFL,0.546 ± 0.035
9,FCLGPSLSSSSL,0.714 ± 0.027
10,FCLGWWVAVCGL,0.487 ± 0.04
11,FCPPLAFPPPLS,0.743 ± 0.028
12,FCSMLPSHLPEA,0.6972 ± 0.0027
13,FCYLCARMPYRS,0.662 ± 0.13
14,FDAWSLASASLV,0.741 ± 0.036
15,FDSGLTTHQRDA,0.686 ± 0.029
16,FDSVAVLYSGGV,0.66 ± 0.0078
17,FELEQNCESATS,0.706 ± 0.013
18,FELVEAAYISEE,0.626 ± 0.058
19,FESFHLENRGEK,0.706 ± 0.04
20,FESRDMVGWFGG,0.674 ± 0.019
21,FFCDFFYLSSHF,0.716 ± 0.019
22,FFCILCAHWFPL,0.589 ± 0.086
23,FFFLPSPTFLPP,0.764 ± 0.046
24,FFGCVLRPCLRG,0.72 ± 0.0076
25,FFGYLVDEGLWV,0.738 ± 0.0084

row,Sequence,protein stability index
1,FFKNAILFVSCE,0.548 ± 0.049
2,FFLGAPVRQFFF,0.582 ± 0.011
3,FFLLGRGVCLGA,0.663 ± 0.054
4,FFLRNRPPLCGQ,0.665 ± 0.012
5,FFLSSLFPSFSS,0.796 ± 0.044
6,FFRDDNRDHKRT,0.689 ± 0.017
7,FFSFYPVYPLSA,0.527 ± 0.021
8,FFSLISVFCPYP,0.533 ± 0.065
9,FFWFFFLRFLFS,0.568 ± 0.031
10,FGAGVWVGRVGG,0.649 ± 0.048
11,FGARKVELRWMV,0.53 ± 0.0092
12,FGCLGVLGSGRC,0.728 ± 0.037
13,FGGMSGVLFRMV,0.663 ± 0.054
14,FGLSVSSMSWNL,0.714 ± 0.0078
15,FGLVYCSGLTVS,0.54 ± 0.0079
16,FGSPVGSAGSCF,0.647 ± 0.095
17,FGSVFMSFFLCS,0.522 ± 0.037
18,FGTKHFGGWGGV,0.745 ± 0.015
19,FGVGGAVGWRLR,0.677 ± 0.052
20,FGVVLEGAGGGG,0.702 ± 0.07
21,FHDVVSKKHSLK,0.705 ± 0.032
22,FHLPLSSHDPLL,0.747 ± 0.11
23,FHSLTDSSPPGL,0.649 ± 0.022
24,FIFPPLFFSPVL,0.788 ± 0.13
25,FIGGCYCSVKSL,0.705 ± 0.047

row,Sequence,protein stability index
1,FILCFPSLLSSL,0.603 ± 0.022
2,FISEYPQCAALG,0.738 ± 0.078
3,FKSYNNDLQDRI,0.728 ± 0.16
4,FKVILGEFPVAW,0.674 ± 0.0086
5,FLASPTPSHPRL,0.787 ± 0.091
6,FLDSFCFFPPLP,0.778 ± 0.014
7,FLFKLPPPPRCH,0.678 ± 0.1
8,FLFLFGCSPFFG,0.727 ± 0.057
9,FLIPPPFALPSL,0.717 ± 0.08
10,FLISFCFVGLVL,0.55 ± 0.014
11,FLLIFHSSPLPV,0.574 ± 0.05
12,FLLPPPPRASSF,0.736 ± 0.066
13,FLLRFSPASRAV,0.691 ± 0.019
14,FLLVSLKQCHGR,0.73 ± 0.036
15,FLMDSQGPWICR,0.726 ± 0.076
16,FLPPSVYAHPFP,0.743 ± 0.083
17,FLQHPPHVLHPY,0.7013 ± 0.0069
18,FLRILRLTPRRP,0.728 ± 0.036
19,FLRVVGFVCRWG,0.679 ± 0.025
20,FLRYVLLPSLFV,0.499 ± 0.01
21,FLSFTSLRTKGL,0.743 ± 0.054
22,FLSHRMNMSGLA,0.658 ± 0.016
23,FLSRFLSCLFYF,0.576 ± 0.028
24,FLTSFVDLCGFY,0.682 ± 0.0082
25,FLVFFRRPSRFF,0.5856 ± 0.0058

row,Sequence,protein stability index
1,FLVKFYKYPSTR,0.707 ± 0.12
2,FMLRTCFLTTSK,0.718 ± 0.027
3,FMMRPPVSSKVS,0.554 ± 0.0048
4,FNETVLYIVPNG,0.639 ± 0.065
5,FNINRCLEGAHK,0.717 ± 0.035
6,FNVSNPVSLQTG,0.641 ± 0.021
7,FPCGARPFPLAF,0.704 ± 0.049
8,FPELLFLFSPSF,0.723 ± 0.022
9,FPFGRMNVSGGC,0.701 ± 0.026
10,FPHLAPTTHLLP,0.673 ± 0.1
11,FPLGRCPHIPPH,0.664 ± 0.013
12,FPLSLSFLSPLV,0.705 ± 0.12
13,FPPLCSSSPPLP,0.7131 ± 0.0069
14,FPPRLPPSPPLP,0.666 ± 0.036
15,FPRFACVLPAFH,0.671 ± 0.081
16,FPSPPPPAPLPP,0.763 ± 0.039
17,FPTPPPGPGPPP,0.641 ± 0.03
18,FPTSRAGSLIRR,0.678 ± 0.053
19,FPVARGRHWLSR,0.732 ± 0.12
20,FPVPPFFLSGHL,0.651 ± 0.11
21,FPVPPPPHPPLH,0.675 ± 0.027
22,FPYPFSSSCFSS,0.651 ± 0.062
23,FQGPPFKHVNSV,0.701 ± 0.059
24,FQIRGFFGLMAD,0.754 ± 0.046
25,FRASLFFVWLPS,0.59 ± 0.085

row,Sequence,protein stability index
1,FRGGLLSLSAWV,0.699 ± 0.02
2,FRGRSSLSTSCG,0.69 ± 0.023
3,FRHSSAVLAPGV,0.6896 ± 0.0057
4,FRLPMIRVCWSL,0.569 ± 0.025
5,FRPCPLNSLSRY,0.724 ± 0.021
6,FRPFLPPSRTFS,0.676 ± 0.008
7,FRPLPFYRLSPP,0.727 ± 0.021
8,FRPLVDVKFPRY,0.658 ± 0.13
9,FRPNPCLSPCSA,0.643 ± 0.1
10,FRSENSWLLCSW,0.786 ± 0.048
11,FRSPRLSPSFFF,0.717 ± 0.027
12,FRSTKELLQLGR,0.664 ± 0.055
13,FRVSVRTVSSLR,0.654 ± 0.037
14,FSELTGFMSVRG,0.652 ± 0.025
15,FSFARFFSWSFS,0.694 ± 0.13
16,FSFFQFSASFFL,0.699 ± 0.039
17,FSGFGERFMISS,0.6917 ± 0.0033
18,FSGRGSSPVAVF,0.544 ± 0.035
19,FSHLLPAESPYP,0.654 ± 0.086
20,FSKDDFEVTPNS,0.819 ± 0.079
21,FSLLPYFPYALP,0.739 ± 0.089
22,FSLVHSFRLSFC,0.599 ± 0.012
23,FSMAHLDGGHRR,0.676 ± 0.013
24,FSRAPHFSGRLC,0.502 ± 0.0087
25,FSSCPPFRPFPL,0.787 ± 0.04

row,Sequence,protein stability index
1,FSSTCLSSRFAI,0.684 ± 0.07
2,FSVDASLPLSSV,0.6749 ± 0.0063
3,FSVPLMLTFPRD,0.721 ± 0.054
4,FSVSLACYPSMC,0.698 ± 0.075
5,FTCRRYVGFMGG,0.798 ± 0.025
6,FTGAVGPCTCRY,0.731 ± 0.023
7,FTSLCLLFLFSL,0.616 ± 0.085
8,FTSRGLLILGFM,0.619 ± 0.008
9,FTTAGSGWESVW,0.636 ± 0.041
10,FVASRFLRCLVL,0.495 ± 0.017
11,FVFQYVVGNFAI,0.617 ± 0.051
12,FVISRPRLHSFC,0.5663 ± 0.0032
13,FVLGGLHAGYVL,0.7146 ± 0.0038
14,FVLRCLGLVLPV,0.593 ± 0.077
15,FVLRFRGMRPSN,0.673 ± 0.019
16,FVLRFVLSLVFF,0.494 ± 0.083
17,FVPLFVFSCSRS,0.5 ± 0.014
18,FVSLEVLFISSL,0.5609 ± 0.0016
19,FVVGGGLRMGAG,0.62253 ± 0.00043
20,FVVLALKESFSV,0.605 ± 0.057
21,FWCMLLAPFVNV,0.657 ± 0.11
22,FWDSCAVSLYLR,0.632 ± 0.041
23,FWVASREVGRAY,0.608 ± 0.041
24,FYRPGNVLDGVF,0.705 ± 0.075
25,GAARTPGRARTL,0.685 ± 0.049

row,Sequence,protein stability index
1,GACCRHERIREE,0.761 ± 0.084
2,GACGSTLPASSR,0.668 ± 0.058
3,GADGARGVPGAG,0.662 ± 0.018
4,GADGYSCGLVIT,0.539 ± 0.11
5,GAENPRRLRART,0.691 ± 0.0079
6,GAGEGAQEDPAS,0.705 ± 0.013
7,GAGLPSGLRIGL,0.647 ± 0.025
8,GAGWGWGRKGSR,0.751 ± 0.089
9,GAHATVPSMVTL,0.698 ± 0.092
10,GALVGWAMALGW,0.679 ± 0.033
11,GAMLAGRQGGGL,0.655 ± 0.0089
12,GANKQHLARKTE,0.7254 ± 0.0069
13,GAPSHVTPLPQI,0.686 ± 0.047
14,GARGGEGVSGGA,0.701 ± 0.012
15,GARPTKCCSYGT,0.683 ± 0.011
16,GARTPVPRHRVH,0.6396 ± 0.0011
17,GARWGWGRKGSR,0.692 ± 0.072
18,GASGGGRGNLEV,0.727 ± 0.13
19,GAVARFRERALS,0.525 ± 0.0098
20,GAVLSYIAPTPL,0.7404 ± 0.0055
21,GAVVLAGWGVLK,0.718 ± 0.028
22,GAVWGRLTGSAH,0.6469 ± 0.005
23,GAVYHGGMASVR,0.746 ± 0.054
24,GAWFTSSPVFGS,0.731 ± 0.034
25,GCAGRHRWVGEW,0.6649 ± 0.0027

row,Sequence,protein stability index
1,GCAITVKRLWFG,0.656 ± 0.076
2,GCCGQGLPWNPP,0.562 ± 0.0077
3,GCFARSEKLSGL,0.687 ± 0.1
4,GCGAVEGFGVGW,0.625 ± 0.03
5,GCGGAWGVWDGV,0.729 ± 0.072
6,GCGLVGVVTGRD,0.71 ± 0.14
7,GCIELTGHLGSF,0.7059 ± 0.0036
8,GCLWRGARALGP,0.687 ± 0.075
9,GCMGGYAFFSGG,0.571
10,GCPRGGVGSRGV,0.659 ± 0.098
11,GCRRYLFLFFGC,0.6 ± 0.047
12,GCVGCNRWWPGW,0.721 ± 0.042
13,GCVGIGFSPGGG,0.656 ± 0.014
14,GDGAGGGFGLVV,0.724 ± 0.097
15,GDGNERPLGRRD,0.643 ± 0.052
16,GDHPPMETISRP,0.734 ± 0.095
17,GDIGAGMGVVGE,0.641 ± 0.0049
18,GDKQKKNEKNKE,0.681 ± 0.048
19,GDNRGLTRVGIE,0.718 ± 0.053
20,GDPADGACGPTR,0.8 ± 0.062
21,GDRNNLRCWNAS,0.712 ± 0.11
